The target of assay [1] is CTLA4 antigen on the surface of 293F-CTLA4 host cells (UniProt P16410). Put plainly: flow cytometry, mean fluorescence intensity with the isotype control (unlabeled 293F bar: 3.62). (In flow cytometry, cells or beads pass a laser one at a time.)
The target of assay [2] is monkey CTLA4-hFc (monkey). Description: ELISA, coat monkey CTLA4-hFc 0.25 ug/ml; antibody 0 (blank). On the technique in general: In an ELISA, binding on a coated surface is turned into a signal by an enzyme label.
The target of assay [3] is murine CTLA4 (murine) (UniProt P09793). Description: ELISA, coat murine CTLA4 0.5 ug/ml; antibody 0.3 ug/ml.
Assay [4] addresses monkey CTLA4-hFc (monkey). Put plainly: ELISA on coated CTLA4, source Monkey (row of 8D2H3L3).
The target of assay [5] is murine CTLA4 (murine) (UniProt P09793). Description: ELISA, coat murine CTLA4 0.5 ug/ml; antibody 0.003 ug/ml.
The target of assay [6] is monkey CTLA4-hFc (monkey). Description: ELISA on coated CTLA4, source Monkey (row of 8D2H2L2).
The target in assay [7] is murine CTLA4 (murine) (UniProt P09793). Put plainly: ELISA, coat murine CTLA4 0.5 ug/ml; antibody 0.001 ug/ml.
The target in assay [8] is monkey CTLA4-hFc (monkey). Description: ELISA, coat monkey CTLA4-hFc 0.25 ug/ml; antibody 1:3 (start 1 ug/ml).
For assay [9], the target named is murine CTLA4 (murine) (UniProt P09793). Description: ELISA on coated CTLA4, source Mouse (row of 8D2H1L1).
The target is the same in assay [10]. Description: ELISA, coat murine CTLA4 0.5 ug/ml; antibody 0 ug/ml (blank).
For assay [11] the target is unchanged. Put plainly: ELISA on coated CTLA4, source Mouse (row of 8D2).
Assay [12] has as its target monkey CTLA4-hFc (monkey). Put plainly: ELISA, coat monkey CTLA4-hFc 0.25 ug/ml; antibody 1:729 (start 1 ug/ml).
In assay [13] the target is murine CTLA4 (murine) (UniProt P09793). Put plainly: ELISA on coated CTLA4, source Mouse (row of 8D2(Re)).
The target of assay [14] is monkey CTLA4-hFc (monkey). Description: ELISA, coat monkey CTLA4-hFc 0.25 ug/ml; antibody 1:27 (start 1 ug/ml).
Assay [15] addresses monkey CTLA4-hFc (monkey). Description: ELISA, coat monkey CTLA4-hFc 0.25 ug/ml; antibody 1:243 (start 1 ug/ml).
Assay [16] deals with monkey CTLA4-hFc (monkey). Description: ELISA, coat monkey CTLA4-hFc 0.25 ug/ml; antibody 1:81 (start 1 ug/ml).
The target in assay [17] is monkey CTLA4-hFc (monkey). Put plainly: ELISA, coat monkey CTLA4-hFc 0.25 ug/ml; antibody 1 ug/ml.
Assay [18] deals with monkey CTLA4-hFc (monkey). Put plainly: ELISA, coat monkey CTLA4-hFc 0.25 ug/ml; antibody 1:9 (start 1 ug/ml).
The target of assay [19] is murine CTLA4 (murine) (UniProt P09793). Put plainly: ELISA, coat murine CTLA4 0.5 ug/ml; antibody 0.01 ug/ml.
Assay [20] shares this target. Description: ELISA, coat murine CTLA4 0.5 ug/ml; antibody 0.03 ug/ml.
Assay [21] has the same target. Put plainly: ELISA, coat murine CTLA4 0.5 ug/ml; antibody 1 ug/ml.
Assay [22] has the same target. Description: ELISA, coat murine CTLA4 0.5 ug/ml; antibody 0.1 ug/ml.

Values joined by “and” are separate entries in the source; they are usually repeats but may differ in a detail not shown here. Identical values can stand only once.

Sequence of CTLA4 antigen on the surface of 293F-CTLA4 host cells (P16410 36-223 limits assumed): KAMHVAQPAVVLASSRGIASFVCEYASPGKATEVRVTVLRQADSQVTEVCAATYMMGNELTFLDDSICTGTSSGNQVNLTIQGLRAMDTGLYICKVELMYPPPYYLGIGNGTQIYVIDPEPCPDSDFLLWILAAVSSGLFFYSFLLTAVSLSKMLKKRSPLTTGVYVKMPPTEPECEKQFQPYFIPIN

In the case of isotype control (antibody), in [1], the MFI was determined as 4.95.
For orientation: EC50 means the concentration needed to bring the measured effect to its halfway point. Consider control antibody 10D1, for which the absorbance at 450 nm is 0.049 in assay [2]; 2.85 and 2.9 in assay [3]; 0.292 and 0.328 in [5]; 0.136 and 0.142 in assay [7]; 1.34 in assay [8]; 0.046 and 0.05 in assay [10]. In addition, the absorbance at 450 nm in [12] is 0.063 and 0.067; in assay [14], 0.429 and 0.402; in assay [15], 0.104 and 0.108; in [16], 0.19 and 0.191; in assay [17], 1.79 and 1.85; in assay [18] it was 0.845 and 0.868. Besides, the absorbance at 450 nm was 0.673 and 0.794 in [19]; 1.51 in [20]; 3 and 2.98 in assay [21]; 2.43 and 2.54 in assay [22]. In addition, the EC50 was 0.258 nM in assay [4]; 0.258 nM in assay [6]; 0.062 nM in assay [9]; 0.062 nM in assay [11]; 0.062 nM in assay [13].

For the origin of these results see US20260166139A1.
